Measurements from the supplement of paper PMC5998384.

How the values were obtained:
HeLa Kyoto [1] = test: solubility in G1/S (NP-40 vs SDS abundance) (log2 ratio); higher = more soluble; conditions: cell cycle stage: G1/S
HeLa Kyoto [2] = test: melting temperature (median over replicates), in situ; higher = more thermally stable
HeLa Kyoto [3] = test: thermal stability score vs G1/S (z-score of summed log2 fold changes over temperatures); higher = more thermally stable than in G1/S
HeLa Kyoto [4] = test: solubility change mitosis vs G1/S (difference of NP-40 vs SDS log2 ratios) (log2 ratio difference); higher = more soluble in mitosis
[5] = cell cycle stage: early G1 (4.5 h after nocodazole release)
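Wherever melting temperature (median over replicates), in situ is given: HeLa Kyoto cells synchronized by double thymidine or nocodazole block, proteins quantified by TMT10plex mass spectrometry, three independent biological replicates.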
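Wherever solubility change mitosis vs G1/S (difference of NP-40 vs SDS log2 ratios) is given: synchronized HeLa Kyoto cells (double thymidine block for G1/S, nocodazole release for mitosis), protein amounts in NP-40 versus SDS lysates quantified by mass spectrometry, three biological replicates.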
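Wherever solubility in G1/S (NP-40 vs SDS abundance) is given: HeLa Kyoto cells arrested at G1/S by double thymidine block, proteins quantified by TMT10plex mass spectrometry in mild NP-40 versus SDS extracts, three biological replicates.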
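Wherever thermal stability score vs G1/S (z-score of summed log2 fold changes over temperatures) is given: synchronized HeLa Kyoto cells, proteins quantified by TMT10plex mass spectrometry, three biological replicates, mitosis taken 0.5 h after nocodazole release, G1/S directly after double thymidine block.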

Sequence of NRBP1 (chain, as listed by the source): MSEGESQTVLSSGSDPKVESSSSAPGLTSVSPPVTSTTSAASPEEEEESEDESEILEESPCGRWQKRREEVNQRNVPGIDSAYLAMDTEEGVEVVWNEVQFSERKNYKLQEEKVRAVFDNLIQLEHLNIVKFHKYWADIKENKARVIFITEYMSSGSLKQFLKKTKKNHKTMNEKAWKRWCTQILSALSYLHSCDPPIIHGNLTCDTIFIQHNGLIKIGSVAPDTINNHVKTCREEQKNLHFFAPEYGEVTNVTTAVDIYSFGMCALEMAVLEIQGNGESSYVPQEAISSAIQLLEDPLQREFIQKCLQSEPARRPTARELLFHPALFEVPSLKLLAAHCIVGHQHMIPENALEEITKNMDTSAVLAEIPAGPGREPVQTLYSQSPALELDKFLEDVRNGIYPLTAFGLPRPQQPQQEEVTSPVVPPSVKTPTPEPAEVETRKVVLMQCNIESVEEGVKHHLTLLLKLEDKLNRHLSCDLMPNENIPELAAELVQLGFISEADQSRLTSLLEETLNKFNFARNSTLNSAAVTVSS
Sequence of BRD2 (chain, as listed by the source): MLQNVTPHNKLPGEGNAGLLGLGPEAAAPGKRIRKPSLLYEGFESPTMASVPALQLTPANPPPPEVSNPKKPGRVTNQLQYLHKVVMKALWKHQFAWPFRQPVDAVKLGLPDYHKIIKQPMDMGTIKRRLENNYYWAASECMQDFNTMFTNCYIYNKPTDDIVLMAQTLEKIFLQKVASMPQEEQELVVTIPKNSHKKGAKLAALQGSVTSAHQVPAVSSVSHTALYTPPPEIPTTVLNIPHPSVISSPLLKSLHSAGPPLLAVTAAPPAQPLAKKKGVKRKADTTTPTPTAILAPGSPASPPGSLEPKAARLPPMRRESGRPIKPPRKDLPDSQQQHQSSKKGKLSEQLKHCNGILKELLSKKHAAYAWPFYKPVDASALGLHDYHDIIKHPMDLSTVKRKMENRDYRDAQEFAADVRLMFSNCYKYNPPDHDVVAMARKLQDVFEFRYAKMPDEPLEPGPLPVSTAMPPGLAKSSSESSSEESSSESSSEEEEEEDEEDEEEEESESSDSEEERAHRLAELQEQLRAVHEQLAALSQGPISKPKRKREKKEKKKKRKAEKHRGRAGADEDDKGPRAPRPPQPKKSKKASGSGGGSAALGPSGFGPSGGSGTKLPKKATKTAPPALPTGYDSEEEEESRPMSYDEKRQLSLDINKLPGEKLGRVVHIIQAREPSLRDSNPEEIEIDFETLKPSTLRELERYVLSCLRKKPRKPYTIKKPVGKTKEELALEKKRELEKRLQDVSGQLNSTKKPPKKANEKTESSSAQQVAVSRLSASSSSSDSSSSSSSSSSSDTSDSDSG

Substance	solubility in G1/S (log2) (HeLa Kyoto [1])	melting temperature (HeLa Kyoto [2]; cell cycle stage: G1/S) [°C]	melting temperature (HeLa Kyoto [2]; cell cycle stage: mitosis) [°C]	thermal stability score (HeLa Kyoto [3]; [5])	thermal stability score (HeLa Kyoto [3]; cell cycle stage: mitosis)	solubility change mitosis (log2) (HeLa Kyoto [4])
MASTNAESQLQRIIRDLQDAVTELSKEFQEAGEPITDDSTSLHKFSYKLEYLLQFDQKEKATLLGNKKDYWDYFCACLAKVKGANDGIRFVKSISELRTSLGKGRAFIRYSLVHQRLADTLQQCFMNTKVTSDWYYARSPFLQPKLSSDIVGQLYELTEVQFDLASRGFDLDAAWPTFARRTLTTGSSAYLWKPPSRSSSMSSLVSSYLQTQEMVSNFDLNSPLNNEALEGFDEMRLELDQLEVREKQLRERMQQLDRENQELRAAVSQQGEQLQTERERGRTAAEDNVRLTCLVAELQKQWEVTQATQNTVKELQTCLQGLELGAAEKEEDYHTALRRLESMLQPLAQELEATRDSLDKKNQHLASFPGWLAMAQQKADTASDTKGRQEPIPSDAAQEMQELGEKLQALERERTKVEEVNRQQSAQLEQLVKELQLKEDARASLERLVKEMAPLQEELSGKGQEADQLWRRLQELLAHTSSWEEELAELRREKKQQQEEKELLEQEVRSLTRQLQFLETQLAQVSQHVSDLEEQKKQLIQDKDHLSQQVGMLERLAGPPGPELPVAGEKNEALVPVNSSLQEAWGKPEEEQRGLQEAQLDDTKVQEGSQEEELRQANRELEKELQNVVGRNQLLEGKLQALQADYQALQQRESAIQGSLASLEAEQASIRHLGDQMEASLLAVRKAKEAMKAQMAEKEAILQSKEGECQQLREEVEQCQQLAEARHRELRALESQCQQQTQLIEVLTAEKGQQGVGPPTDNEARELAAQLALSQAQLEVHQGEVQRLQAQVVDLQAKMRAALDDQDKVQSQLSMAEAVLREHKTLVQQLKEQNEALNRAHVQELLQCSEREGALQEERADEAQQREEELRALQEELSQAKCSSEEAQLEHAELQEQLHRANTDTAELGIQVCALTVEKERVEEALACAVQELQDAKEAASREREGLERQVAGLQQEKESLQEKLKAAKAAAGSLPGLQAQLAQAEQRAQSLQEAAHQELNTLKFQLSAEIMDYQSRLKNAGEECKSLRGQLEEQGRQLQAAEEAVEKLKATQADMGEKLSCTSNHLAECQAAMLRKDKEGAALREDLERTQKELEKATTKIQEYYNKLCQEVTNRERNDQKMLADLDDLNRTKKYLEERLIELLRDKDALWQKSDALEFQQKLSAEERWLGDTEANHCLDCKREFSWMVRRHHCRICGRIFCYYCCNNYVLSKHGGKKERCCRACFQKLSEGPGSPDSSGSGTSQGEPSPALSPASPGPQATGGQGANTDYRPPDDAVFDIITDEELCQIQESGSSLPETPTETDSLDPNAAEQDTTSTSLTPEDTEDMPVGQDSEICLLKSGELMIKVPLTVDEIASFGEGSRELFVRSSTYSLIPITVAEAGLTISWVFSSDPKSISFSVVFQEAEDTPLDQCKVLIPTTRCNSHKENIQGQLKVRTPGIYMLIFDNTFSRFVSKKVFYHLTVDRPVIYDGSDFL [FYCO1]	0.0536	51.3	51	-0.119	0.0455	-0.142
MEDPTLYIVERPLPGYPDAEAPEPSSAGAQAAEEPSGAGSEELIKSDQVNGVLVLSLLDKIIGAVDQIQLTQAQLEERQAEMEGAVQSIQGELSKLGKAHATTSNTVSKLLEKVRKVSVNVKTVRGSLERQAGQIKKLEVNEAELLRRRNFKVMIYQDEVKLPAKLSISKSLKESEALPEKEGEELGEGERPEEDAAALELSSDEAVEVEEVIEESRAERIKRSGLRRVDDFKKAFSKEKMEKTKVRTRENLEKTRLKTKENLEKTRHTLEKRMNKLGTRLVPAERREKLKTSRDKLRKSFTPDHVVYARSKTAVYKVPPFTFHVKKIREGQVEVLKATEMVEVGADDDEGGAERGEAGDLRRGSSPDVHALLEITEESDAVLVDKSDSD [PTRF]	-0.215	54.4	52.4	-3.64	-4.73	0.094
BRD2	-0.0635	47.9	49.1	0.901	2.29	0.202
NAV1	-0.141	47.2	49	1.35	2.83	0.0198
MAAQRRSLLQSEQQPSWTDDLPLCHLSGVGSASNRSYSADGKGTESHPPEDSWLKFRSENNCFLYGVFNGYDGNRVTNFVAQRLSAELLLGQLNAEHAEADVRRVLLQAFDVVERSFLESIDDALAEKASLQSQLPEGVPQHQLPPQYQKILERLKTLEREISGGAMAVVAVLLNNKLYVANVGTNRALLCKSTVDGLQVTQLNVDHTTENEDELFRLSQLGLDAGKIKQVGIICGQESTRRIGDYKVKYGYTDIDLLSAAKSKPIIAEPEIHGAQPLDGVTGFLVLMSEGLYKALEAAHGPGQANQEIAAMIDTEFAKQTSLDAVAQAVVDRVKRIHSDTFASGGERARFCPRHEDMTLLVRNFGYPLGEMSQPTPSPAPAAGGRVYPVSVPYSSAQSTSKTSVTLSLVMPSQGQMVNGAHSASTLDEATPTLTNQSPTLTLQSTNTHTQSSSSSSDGGLFRSRPAHSLPPGEDGRVEPYVDFAEFYRLWSVDHGEQSVVTAP [TAB1]	0.302	49.4	49.7	-0.0541	1.34	-0.0812
MGSSATEIEELENTTFKYLTGEQTEKMWQRLKGILRCLVKQLERGDVNVVDLKKNIEYAASVLEAVYIDETRRLLDTEDELSDIQTDSVPSEVRDWLASTFTRKMGMTKKKPEEKPKFRSIVHAVQAGIFVERMYRKTYHMVGLAYPAAVIVTLKDVDKWSFDVFALNEASGEHSLKFMIYELFTRYDLINRFKIPVSCLITFAEALEVGYSKYKNPYHNLIHAADVTQTVHYIMLHTGIMHWLTELEILAMVFAAAIHDYEHTGTTNNFHIQTRSDVAILYNDRSVLENHHVSAAYRLMQEEEMNILINLSKDDWRDLRNLVIEMVLSTDMSGHFQQIKNIRNSLQQPEGIDRAKTMSLILHAADISHPAKSWKLHYRWTMALMEEFFLQGDKEAELGLPFSPLCDRKSTMVAQSQIGFIDFIVEPTFSLLTDSTEKIVIPLIEEASKAETSSYVASSSTTIVGLHIADALRRSNTKGSMSDGSYSPDYSLAAVDLKSFKNNLVDIIQQNKERWKELAAQEARTSSQKCEFIHQ [PDE1A]	-0.162	55.2	54.1	1.43	2.27	-0.0985
MDTGVIEGGLNVTLTIRLLMHGKEVGSIIGKKGESVKKMREESGARINISEGNCPERIITLAGPTNAIFKAFAMIIDKLEEDISSSMTNSTAASRPPVTLRLVVPASQCGSLIGKGGCKIKEIRESTGAQVQVAGDMLPNSTERAITIAGIPQSIIECVKQICVVMLETLSQSPPKGVTIPYRPKPSSSPVIFAGGQDRYSTGSDSASFPHTTPSMCLNPDLEGPPLEAYTIQGQYAIPQPDLTKLHQLAMQQSHFPMTHGNTGFSGIESSSPEVKGYWGLDASAQTTSHELTIPNDLIGCIIGRQGAKINEIRQMSGAQIKIANPVEGSTDRQVTITGSAASISLAQYLINVRLSSETGGMGSS [PCBP2]	0.222	47.9	49.5	1.75	7.6	-0.136
MDDSEVESTASILASVKEQEAQFEKLTRALEEERRHVSAQLERVRVSPQDANPLMANGTLTRRHQNGRFVGDADLERQKFSDLKLNGPQDHSHLLYSTIPRMQEPGQIVETYTEEDPEGAMSVVSVETSDDGTTRRTETTVKKVVKTVTTRTVQPVAMGPDGLPVDASSVSNNYIQTLGRDFRKNGNGGPGPYVGQAGTATLPRNFHYPPDGYSRHYEDGYPGGSDNYGSLSRVTRIEERYRPSMEGYRAPSRQDVYGPQPQVRVGGSSVDLHRFHPEPYGLEDDQRSMGYDDLDYGMMSDYGTARRTGTPSDPRRRLRSYEDMIGEEVPSDQYYWAPLAQHERGSLASLDSLRKGGPPPPNWRQPELPEVIAMLGFRLDAVKSNAAAYLQHLCYRNDKVKTDVRKLKGIPVLVGLLDHPKKEVHLGACGALKNISFGRDQDNKIAIKNCDGVPALVRLLRKARDMDLTEVITGTLWNLSSHDSIKMEIVDHALHALTDEVIIPHSGWEREPNEDCKPRHIEWESVLTNTAGCLRNVSSERSEARRKLRECDGLVDALIFIVQAEIGQKDSDSKLVENCVCLLRNLSYQVHREIPQAERYQEAAPNVANNTGPHAASCFGAKKGKDEWFSRGKKPIEDPANDTVDFPKRTSPARGYELLFQPEVVRIYISLLKESKTPAILEASAGAIQNLCAGRWTYGRYIRSALRQEKALSAIADLLTNEHERVVKAASGALRNLAVDARNKELIGKHAIPNLVKNLPGGQQNSSWNFSEDTVISILNTINEVIAENLEAAKKLRETQGIEKLVLINKSGNRSEKEVRAAALVLQTIWGYKELRKPLEKEGWKKSDFQVNLNNASRSQSSHSYDDSTLPLIDRNQKSDKKPDREEIQMSNMGSNTKSLDNNYSTPNERGDHNRTLDRSGDLGDMEPLKGTTPLMQDEGQESLEEELDVLVLDDEGGQVSYPSMQKI [CTNND1]	0.228	48.1	48	-0.443	1.3	-0.0563
MDGRTPRPQDAPARRKPKAKAPLPPAETKYTDVSSAADSVESTAFIMEQKENMIDKDVELSVVLPGDIIKSTTVHGSKPMMDLLIFLCAQYHLNPSSYTIDLLSAEQNHIKFKPNTPIGMLEVEKVILKPKMLDKKKPTPIIPEKTVRVVINFKKTQKTIVRVSPHASLQELAPIICSKCEFDPLHTLLLKDYQSQEPLDLTKSLNDLGLRELYAMDVNRESCQISQNLDIMKEKENKGFFSFFQRSKKKRDQTASAPATPLVNKHRPTFTRSNTISKPYISNTLPSDAPKKRRAPLPPMPASQSVPQDLAHIQERPASCIVKSMSVDETDKSPCEAGRVRAGSLQLSSMSAGNSSLRRTKRKAPSPPSKIPPHQSDENSRVTALQPVDGVPPDSASEANSPEELSSPAGISSDYSLEEIDEKEELSEVPKVEAENISPKSQDIPFVSTDIINTLKNDPDSALGNGSGEFSQNSMEEKQETKSTDGQEPHSVVYDTSNGKKVVDSIRNLKSLGPNQENVVQNEIIVYPENTEDNMKNGVKKTEINVEGVAKNNNIDMEVERPSNSEAHETDTAISYKENHLAASSVPDQKLNQPSAEKTKDAAIQTTPSCNSFDGKHQDHNLSDSKVEECVQTSNNNISTQHSCLSSQDSVNTSREFRSQGTLIIHSEDPLTVKDPICAHGNDDLLPPVDRIDKNSTASYLKNYPLYRQDYNPKPKPSNEITREYIPKIGMTTYKIVPPKSLEISKDWQSETIEYKDDQDMHALGKKHTHENVKETAIQTEDSAISESPEEPLPNLKPKPNLRTEHQVPSSVSSPDDAMVSPLKPAPKMTRDTGTAPFAPNLEEINNILESKFKSRASNAQAKPSSFFLQMQKRVSGHYVTSAAAKSVHAAPNPAPKELTNKEAERDMLPSPEQTLSPLSKMPHSVPQPLVEKTDDDVIGQAPAEASPPPIAPKPVTIPASQVSTQNLKTLKTFGAPRPYSSSGPSPFALAVVKRSQSFSKERTESPSASALVQPPANTEEGKTHSVNKFVDIPQLGVSDKENNSAHNEQNSQIPTPTDGPSFTVMRQSSLTFQSSDPEQMRQSLLTAIRSGEAAAKLKRVTIPSNTISVNGRSRLSHSMSPDAQDGH [COBLL1]	0.0471	50.5	50.8	-0.155	-0.336	-0.0197
NRBP1	0.099	51.9	51.4	0.757	0.7	-0.15
MVSHSELRKLFYSADAVCFDVDSTVIREEGIDELAKICGVEDAVSEMTRRAMGGAVPFKAALTERLALIQPSREQVQRLIAEQPPHLTPGIRELVSRLQERNVQVFLISGGFRSIVEHVASKLNIPATNVFANRLKFYFNGEYAGFDETQPTAESGGKGKVIKLLKEKFHFKKIIMIGDGATDMEACPPADAFIGFGGNVIRQQVKDNAKWYITDFVELLGELEE [PSPH]	0.258	56.6	58.2	-0.555	-0.969	-0.049
